Experimental data from patent US20210238279A1 (Johns Hopkins, published 2021).

T1: human ZnT8 over-expressed in HEK293 cells (human, UniProt Q8IWU4 1-369)
T1 construct: whole, on cells; Cells were fixed and permeabilized for immunofluorescence and flow cytometry (intracellular staining); The same id is used for the detergent lysates of over-expressing cells in the HTRF assay; also called ZnT8(+) HEK293 cells; HEK293 cells stably expressing human ZnT8
T1 sequence (looked up): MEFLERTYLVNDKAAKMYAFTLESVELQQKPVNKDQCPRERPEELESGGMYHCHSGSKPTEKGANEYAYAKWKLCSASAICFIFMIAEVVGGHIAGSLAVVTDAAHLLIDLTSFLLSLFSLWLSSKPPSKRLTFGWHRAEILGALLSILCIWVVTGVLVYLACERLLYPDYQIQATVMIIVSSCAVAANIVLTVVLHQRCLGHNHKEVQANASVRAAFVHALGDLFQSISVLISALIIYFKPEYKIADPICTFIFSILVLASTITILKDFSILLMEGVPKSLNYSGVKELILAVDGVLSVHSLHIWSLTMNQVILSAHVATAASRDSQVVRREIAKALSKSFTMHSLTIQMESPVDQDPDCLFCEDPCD

T2: monomeric human ZnT8 CTD-His antigen (aa 275-369) (human, UniProt Q8IWU4 275-369)
T2 construct: range 275-369; Immobilized on Ni-NTA plates through the C-terminal poly-histidine tag; also called CTD-His monomer; monomeric CTD antigen; not shown: C-terminal poly-histidine tag
T2 sequence (looked up): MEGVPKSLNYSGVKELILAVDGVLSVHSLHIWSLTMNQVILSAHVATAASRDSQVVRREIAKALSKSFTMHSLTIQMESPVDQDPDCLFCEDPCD

B1: mAb20 (antibody, V domains shown)
VH: QIQLVQSGPELKKPGETVKISCKASGYIFTNYPMHWVKQAPGKGLKWMGWINTYSGVPTHADDFKGRFAFSLETSANSAFLQINNLKNEDTATYFCTRSRITPTGGYAMDYWGQGTSVTVSS
VL: DVVMTQTPLSLPVSLGDQASISCRSSQSLVHSNGNTYLHWYLQKPGQSPNLLISKVSNRFSGVPERFSGSGSGTDFTLKISRVEAEDLGVYFCSQNTHVPWTFGGGTKLEIKR
notes: Mouse hybridoma mAb purified on protein A/G; In some assays it was labelled with Alexa Fluor 488 or terbium cryptate; also called monoclonal antibody mAb20; anti-ZnT8 mAb20
B2: mAb39 (antibody, V domains shown)
VH: QVQLQQPGAELVKPGASVKLSCKASGYSFTTYWMHWVKQRPGQGLEWVGDINPRNGRTNYNEKSKSKATLTVDISSSTVYMQVSSLTSEDSAVYYCAIWSGAMDYWGPGTSVTVSS
VL: DVVMTQTPLSLPVSLGDQPSISCKSSQSLVHNNGNTYLHWYLQKPGQSPKLLIYKVSNRFSGVPDRFSGSGSGTDFTLKISRVEAEDLGVYFCSQTTHVPPTFGGGTKLEIKR
notes: Mouse hybridoma mAb purified on protein A/G; In some assays it was labelled with Alexa Fluor 555 or d2; also called monoclonal antibody mAb39; anti-ZnT8 mAb39

Columns and labels:
[1] = biological target: T1, human ZnT8 over-expressed in HEK293 …; assay: flow cytometry of fixed and permeabilized HEK293 cells, mean fluorescence against antibody concentration
Text: FIG. 6A-6C. mAb binding affinity. (FIG. 6A) Representative confocal microscopy images of immunofluorescence staining of fixed and saponin-permeabilized HEK293 cells with mAb20 or mAb39 staining as indicated. ZnT8(+) or ZnT8(−) denotes HEK293 cells w/o ZnT8 over-expression. Red: mAb20 or mAb39 staining, blue: DAPI, scale bar: 5 um. (FIG. 6B) Histograms of flow cytometry counting events. Arrows indicate leftward shifts of the histogram as a result of mAb serial dilutions. (FIG. 6C) mAb binding to HEK293 cells w/o ZnT8 overexpression as indicated. Immunofluorescence intensities of mAb20 or mAb39 labeling in serial dilutions were obtained from (FIG. 6B). Solid lines are least-squares fits of the binding data to a one-component binding process.
Flow cytometry analysis. HEK293 cells w/o ZnT8 over-expression were fixed, permeabilized, and resuspended in PBS plus 5% BSA at a density of 1×10⁶/ml as described previously (43). Aliquots of 100 μl cell suspension were stained with mAb20 or mAb39 in 3-fold serial dilutions for 2 hours at RT, and then stained with Alexa fluor 647-conjugated donkey-anti-mouse secondary antibody in 1:1000 dilution with 5% BSA (Thermo Fisher Scientific, cat. #A31571). The labeled cells were analyzed immediately by flow cytometry. […]
Binding affinity. […] No mAb staining was detected in parental HEK293 cells without ZnT8 over-expression. […]

[2] = biological target: T2, monomeric human ZnT8 CTD-His antigen …; assay: ELISA, monomeric CTD-His on Ni-NTA plate
Text: Error bars represent standard deviations. (FIG. 1B) ELISA against a monomeric CTD antigen immobilized to Ni-NTA plate via a C-terminal poly-histidine tag. CTDA and NTDA were used a positive and negative control, respectively (Z>0.5).
Materials and Methods Generating hybridoma. Four pairs of male/female homozygous Slc30a8-1- mice were immunized by weekly intraperitoneal injections of a human ZnT8 antigen (the R325 variant) in reconstituted proteoliposomes. All experiments with mice were approved by the Institutional Animal Care and Use Committee of Johns Hopkins University School of Medicine. Serum antibody titering and validation of anti-ZnT8 specificity by CRISPR/Cas9 ZnT8-knockout were described previously (36). Following a final immunization boost, spleens were isolated. Splenocytes were fused with an immortalized myeloma cell line Sp2/0-Ag14 (CRL-1581, ATCC) at a 4:1 splenocytes-to-myeloma ratio by adding 1 ml of 50% PEG1500 (w/v, Roche) to the cell mixture drop-by-drop over 1 min (37). […] Bound antibodies were detected by an HRP-conjugated goat anti-mouse secondary antibody (Invitrogen, cat. #62-6500) with 1:3000 dilutions in assay buffer, followed by ABTS colorimetric reaction (Life Technologies) and signal readout at 415 nm on a plate reader (Molecular Device). […]

Binder	EC50 (read off the curve) [1]	binding result [2]
B1	~0.1 µg/mL	–
B2	~0.1 µg/mL	no binding
